According to the supplement of paper PMC7877785:
± gives the uncertainty stated by the source.

Test: self-splicing fitness, log relative to wild type (ln ratio); higher = more splicing; Tetrahymena group I intron in knt gene, E. coli kanamycin selection, DiMSum; sequences stand for … in CUCUCU…GGAGGGAAAAGUUAUCAGGCAUGCACCUGGUAGCUAGUCUUUAAACCAAUAGAUUGCAUCGGUUUAAAAGGCAAGACCGUCAAAUUGCGGGAAAGGGGUCAACAGCCGUUCAGUACCAAGUCUCAGGGGAAACUUUGAGAUGGCCUUGCAAAGGGUAUGGUAAUAAGCUGACGGACAUGGUCCUAACCACGCAGCCAAGUCCUAAGUCAACAGAUCUUCUGUUGAUAUGGAUGCAGUUCACAGACUAAAUGUCGGUCGGGGAAGAUGUAUUCUUCUCAUAAGAUAUAGUCGGACCUCUCCUUAAUGGGAGCUAGCGGAUGAAGUGAUGCAACACUGGAGCCGCUGGGAACUAAUUUGUAUGCGAAAGUAUAUUGAUUAGUUUUGGAGUACUCGUGGUCG
In short: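 Six replicate transformations of E. coli BL21(DE3) with a pET-22b(+) library were grown overnight at 37°C or 30°C. The library randomised all eight P1ex-region intron nucleotides, the intron lying in the knt kanamycin-resistance gene, and plates were LB agar with or without 25 μg/mL kanamycin plus 100 μg/mL carbenicillin, 50 μM IPTG and 0.2% rhamnose. Pooled colonies were amplicon-sequenced on an Illumina HiSeq 2500, and fitness is the DiMSum error-weighted combination of wild-type-normalised replicate fold changes, kanamycin versus none.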

| Sequence | self-splicing fitness (ln) (30 °C) | self-splicing fitness (ln) (37 °C) |
| --- | --- | --- |
| GUUCAGCAAUAUUACGGUGC | -1.34 ± 0.14 | -0.357 ± 0.12 |
| GUUCAGCAAUAUUACGUAAA | 0.0969 ± 0.077 | 0.494 ± 0.11 |
| GUUCAGCAAUAUUACGUAGG | -0.609 ± 0.082 | 0.163 ± 0.1 |
| GUUCAGCAAUAUUACGUAUA | -0.905 ± 0.15 | -1.1 ± 0.17 |
| GUUCAGCAAUAUUACGUAUU | -0.531 ± 0.057 | -0.576 ± 0.074 |
| GUUCAGCAAUAUUACGUCUU | -0.624 ± 0.056 | -0.758 ± 0.064 |
| GUUCAGCAAUAUUACGUGUC | -0.83 ± 0.097 | 0.00179 ± 0.094 |
| GUUCAGCAAUAUUACGUUCA | -0.741 ± 0.12 | -0.425 ± 0.13 |
| GUUGAGCAAUAUUACGACCG |  | -1.77 ± 0.47 |
| GUUGAGCAAUAUUACGAUGC | -2.24 ± 0.49 | -2.24 ± 0.45 |
| GUUGAGCAAUAUUACGCAAG | -2.77 ± 0.21 | -1.79 ± 0.26 |
| GUUGAGCAAUAUUACGCAAU | -2.68 ± 0.2 | -3.31 ± 0.29 |
| GUUGAGCAAUAUUACGCAGG | -3.35 ± 0.28 | -1.75 ± 0.37 |
| GUUGAGCAAUAUUACGCGCC | -2.97 ± 0.37 |  |
| GUUGAGCAAUAUUACGCUCG | -2.49 ± 0.16 | -2.34 ± 0.3 |
| GUUGAGCAAUAUUACGCUCU | -2.49 ± 0.47 |  |
| GUUGAGCAAUAUUACGGGAC | -2.69 ± 0.34 | -1.49 ± 0.35 |
| GUUGAGCAAUAUUACGGUGU | -2.22 ± 0.2 | -1.1 ± 0.33 |
| GUUGAGCAAUAUUACGGUUA | -1.88 ± 0.28 | -2.09 ± 0.24 |
| GUUGAGCAAUAUUACGUCAC | -3.41 ± 0.43 | -1.86 ± 0.23 |
| GUUGAGCAAUAUUACGUGAG | -1.93 ± 0.15 | -1.42 ± 0.19 |
| GUUGAGCAAUAUUACGUGUC | -2.34 ± 0.14 | -2.2 ± 0.2 |
| GUUGAGCAAUAUUACGUUCG | -1.34 ± 0.086 | -1.67 ± 0.11 |
| GUUGAGCAAUAUUACGUUGU | -3.09 ± 0.23 | -1.68 ± 0.17 |
| GUUUAGCAAUAUUACGAAAA | -1.78 ± 0.29 | -0.97 ± 0.25 |
| GUUUAGCAAUAUUACGAAGA |  | -0.651 ± 0.34 |

| Sequence | self-splicing fitness (ln) (30 °C) | self-splicing fitness (ln) (37 °C) |
| --- | --- | --- |
| GUUUAGCAAUAUUACGAAGU | -2.65 ± 0.16 | -2.03 ± 0.38 |
| GUUUAGCAAUAUUACGAGCA | -1.35 ± 0.25 | -0.983 ± 0.48 |
| GUUUAGCAAUAUUACGAGCU |  | -0.552 ± 0.27 |
| GUUUAGCAAUAUUACGAGGA | -2.48 ± 0.44 | -1.79 ± 0.37 |
| GUUUAGCAAUAUUACGAGGC | -2.48 ± 0.24 | -2.45 ± 0.24 |
| GUUUAGCAAUAUUACGCCCU | -0.651 ± 0.098 | -0.533 ± 0.11 |
| GUUUAGCAAUAUUACGCCUU | -1.21 ± 0.17 | -0.678 ± 0.21 |
| GUUUAGCAAUAUUACGCGAA | -3.53 ± 0.49 | -2.01 ± 0.22 |
| GUUUAGCAAUAUUACGCGCA | -0.466 ± 0.1 | -0.363 ± 0.12 |
| GUUUAGCAAUAUUACGCUCG | -0.147 ± 0.15 | 0.0286 ± 0.21 |
| GUUUAGCAAUAUUACGGACU |  | 1.32 ± 0.45 |
| GUUUAGCAAUAUUACGGCAA | -0.678 ± 0.14 | -1.03 ± 0.13 |
| GUUUAGCAAUAUUACGGCUC | 0.0411 ± 0.094 | 0.193 ± 0.12 |
| GUUUAGCAAUAUUACGGGGC | -2.67 ± 0.33 |  |
| GUUUAGCAAUAUUACGGUCA | -1.26 ± 0.19 | -0.326 ± 0.16 |
| GUUUAGCAAUAUUACGGUUU | -1.32 ± 0.1 | -0.0737 ± 0.13 |
| GUUUAGCAAUAUUACGUAUC | -0.904 ± 0.28 | -0.233 ± 0.36 |
| GUUUAGCAAUAUUACGUCAC | -3.24 ± 0.24 | -0.353 ± 0.17 |
| GUUUAGCAAUAUUACGUCCU | -1.12 ± 0.24 | -1.03 ± 0.25 |
| GUUUAGCAAUAUUACGUCUU | -0.801 ± 0.11 | -0.25 ± 0.11 |
| GUUUAGCAAUAUUACGUGCC | -2.91 ± 0.36 |  |
| GUUUAGCAAUAUUACGUUGG | -3.81 ± 0.37 | -1.45 ± 0.23 |
| UAAAAGCAAUAUUACGAAAA | -2.94 ± 0.2 | -1.71 ± 0.16 |
| UAAAAGCAAUAUUACGAACA | -0.822 ± 0.072 | 0.504 ± 0.11 |
| UAAAAGCAAUAUUACGAACC | -3.12 ± 0.36 | -1.25 ± 0.45 |
